Reference: article PMC3081289

Columns and labels:
[1] = molecular target: T1, Vascular Endothelial Growth Factor (VEGF), receptor binding domain, VEGF_(8–109); test: SPR; conditions: chain shown with the change; for response (Response Units): 0.5 µM Fab, parent: est. 690, read off a plot
T1 chain: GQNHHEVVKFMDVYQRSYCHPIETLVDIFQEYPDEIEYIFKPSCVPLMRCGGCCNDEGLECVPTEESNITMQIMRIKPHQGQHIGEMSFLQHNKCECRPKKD

[2] = molecular target: T1, Vascular Endothelial Growth Factor …; test: calculated from ΔG (SPR) and ΔH (ITC); conditions: chain shown with the change; 30°C, phosphate buffer (pH 7.4); parent: est. -4.4 kcal/mol; read off a plot
[3] = molecular target: T1, Vascular Endothelial Growth Factor …; test: SPR (ΔG derived from KD); conditions: chain shown with the change; 30°C, phosphate buffer (pH 7.4); parent: est. -12 kcal/mol; read off a plot
[4] = 30°C, Fab over immobilized antigen

B1: bH1-44 Fab (affinity-improved variant of bH1) HC:R50A; HC:R58A (protein)
chain 1: EVQLVESGGGLVQPGGSLRLSCAASGFNISGTYIHWVRQAPGKGLEWVAAIYPSEGYTAYADSVKGRFTISADTSKNTAYLQMNSLRAEDTAVYYCSRWVGVGFYAMDYWGQGTLVTVSS
chain 2: DIQMTQSPSSLSASVGDRVTITCRASQNIAKTISGYVAWYQQKPGKAPKLLIYWGSFLYSGVPSRFSGSGSGTDFTLTISSLQPEDFATYYCQQHYSSPPTFGQGTKVEIK
For B1, the response (Response Units) [1] was 600, the Kd [1, 4] was 3 nM and the koff [1, 4] was 10 10^-4 s-1. It also gave an other: -TΔS [2] of -3.7 kcal/mol and a dG [3] of -12 kcal/mol.

B2: bH1-44 Fab (affinity-improved variant of bH1) LC:Y32A (protein)
chain 1: EVQLVESGGGLVQPGGSLRLSCAASGFNISGTYIHWVRQAPGKGLEWVARIYPSEGYTRYADSVKGRFTISADTSKNTAYLQMNSLRAEDTAVYYCSRWVGVGFYAMDYWGQGTLVTVSS
chain 2: DIQMTQSPSSLSASVGDRVTITCRASQNIAKTISGAVAWYQQKPGKAPKLLIYWGSFLYSGVPSRFSGSGSGTDFTLTISSLQPEDFATYYCQQHYSSPPTFGQGTKVEIK
B2 showed a response (Response Units) [1] of 60.
